Measured values as given in PMC3794784, “The Role of Initial Oligomers in Amyloid Fibril Formation by Human Stefin B” (International Journal of Molecular Sciences, 2013).
Values joined by “and” are separate entries in the source; they are usually repeats but may differ in a detail not shown here. Equal values may be shown once.

Columns and labels:
[1] = target: the molecule itself; test: native MS; ESI-Q-TOF MS of SEC fractions, stefin B in 0.02 M ammonium acetate, pH 7.5, injected directly, positive mode
[2] = target: the molecule itself; test: SEC; pH dependent transitions started from separated tetramers or higher-order oligomers; 34 μM protein, 2 h at 23 °C at pH 4.8, 5.8 or 7.0, 0.15 M NaCl, 9% (v/v) TFE
[3] = target: the molecule itself; test: SEC; oligomers isolated on Superdex 75 and then loaded on Superdex 200; room temperature; 0.01 M phosphate buffer, pH 7.0, 0.15 M NaCl (0.02 M ammonium acetate, pH 7.5 for ESI MS samples)
[4] = target: the molecule itself; test: SEC; time course started from SEC-purified monomers, dimers, tetramers or higher-order oligomers; pH 5.8 (0.1 M phosphate buffer, 0.15 M NaCl, 9% (v/v) TFE, 25 °C); an aliquot every hour on Superdex 75; tetramer to dimers
[5] = target: the molecule itself; test: SEC; concentration dependence (34, 75, 100 μM), started from the oligomer mixture; 0.02 M ammonium acetate, pH 7.5, 0.15 M NaCl, 9% (v/v) TFE, 50 °C, 300 rpm, 5 h; aliquots on Superdex 75; dimer to monomers, Kd = [M]^2/[D]
[6] = target: the molecule itself; test: SEC; concentration dependence (4, 9, 34, 75, 100 μM), started from the oligomer mixture; 0.1 M phosphate buffer, pH 5.8, 0.15 M NaCl, 9% (v/v) TFE, 25 °C, 300 rpm, 5 h; aliquots on Superdex 75; tetramer to dimers, Kd = [D]^2/[T]

B1: Recombinant human stefin B (S3E31) (natural protein, UniProt P04080 1-98, looked up)
chain: MMSGAPSATQPATAETQHIADQVRSQLEEKENKKFPVFKAVSFKSQVVAGTNYFIKVHVGDEDFVHLRVFQSLPHENKPLTLSNYQTNKAKHDELTYF
notes: human stefin B (product of the cystatin B gene), a globular protein of 98 amino acid residues; variant S3E31: Ser at position 3 instead of Cys, Glu at position 31; also called cystatin B
Q: B1 was tested. Which “stoichiometry N” value [1] did it give?
A: 10 and 8

Q: And the “stoichiometry N” value [2]?
A: 6 and 3

Q: What about the “stoichiometry N” value [3] of the same protein?
A: 2 and 4

Q: What about the koff [4] of the same protein?
A: 0.0001 s⁻¹

Q: And the Ka [5]?
A: 612000 M⁻¹

Q: And the Kd [5]?
A: 1630 ± 310 nM

Q: And the Ka [6]?
A: 3080 M⁻¹

Q: And the Kd [6]?
A: 325 ± 180 µM
